Data published in paper PMC7094161, “An Alternative Pin1 Binding and Isomerization Site in the N-Terminus Domain of PSD-95” (Frontiers in Molecular Neuroscience, 2020).

Legend:
Assay in all cases: FRET or BRET; FRET/FLIM: EGFP fluorescence lifetime of EKAR constructs (WW domain and peptide on one chain) in fixed, mounted COS cells; serum in the medium
Conditions in all cases: partners not purified
[1] = target: T1, PSD-95 S35 peptide of the EKAR construct (UniProt P31016 30-40)
T1 construct: PSD-95 peptide around S35 put in place of the CDC25C peptide; On one chain with m14 (see its note); also called EKAR S35; source: COS cells, transfected, in cells
T1 peptide (looked up): PNQANSPPVIV

[2] = target: T2, PSD-95 T19 peptide of the EKAR construct (UniProt P31016 14-24)
T2 construct: PSD-95 peptide around T19 put in place of the CDC25C peptide; 11 residues, the text says 10-mer; On one chain with m14 (see its note); also called EKAR T19; EKAR_(cyto)T19; source: COS cells, transfected, in cells
T2 peptide (looked up): YQDEDTPPLEH

[3] = target: T3, PSD-95 S25 peptide of the EKAR construct (UniProt P31016 20-30)
T3 construct: PSD-95 peptide around S25 put in place of the CDC25C peptide; On one chain with m14 (see its note); also called EKAR S25; source: COS cells, transfected, in cells
T3 peptide (looked up): PPLEHSPAHLP

EGFP fluorescence lifetime [1]: 1.81 ns
EGFP fluorescence lifetime [2]: 1.72 ns
EGFP fluorescence lifetime [3]: 1.69 ns
B1: Pin1 WW domain of the EKAR construct (domain or fragment, UniProt Q13526 5-39, looked up)
chain: EKLPPGWEKRMSRSSGRVYYFNHITNASQWERPSG
notes: Pin1 WW domain as in the EKAR construct (Harvey et al., 2008); source: COS cells, transfected, in cells
